This is an account of results in article PMC8154130 (ACS Omega, 2021).

The series concerns the molecule itself. As to the kind of experiment: native gel or EMSA.

B1: C-terminal truncated DDX3X (domain or fragment, human, UniProt O00571 1-582, looked up)
chain: MSHVAVENALGLDQQFAGLDLNSSDNQSGGSTASKGRYIPPHLRNREATKGFYDKDSSGWSSSKDKDAYSSFGSRSDSRGKSSFFSDRGSGSRGRFDDRGRSDYDGIGSRGDRSGFGKFERGGNSRWCDKSDEDDWSKPLPPSERLEQELFSGGNTGINFEKYDDIPVEATGNNCPPHIESFSDVEMGEIIMGNIELTRYTRPTPVQKHAIPIIKEKRDLMACAQTGSGKTAAFLLPILSQIYSDGPGEALRAMKENGRYGRRKQYPISLVLAPTRELAVQIYEEARKFSYRSRVRPCVVYGGADIGQQIRDLERGCHLLVATPGRLVDMMERGKIGLDFCKYLVLDEADRMLDMGFEPQIRRIVEQDTMPPKGVRHTMMFSATFPKEIQMLARDFLDEYIFLAVGRVGSTSENITQKVVWVEESDKRSFLLDLLNATGKDSLTLVFVETKKGADSLEDFLYHEGYACTSIHGDRSQRDREEALHQFRSGKSPILVATAVAARGLDISNVKHVINFDLPSDIEEYVHRIGRTGRVGNLGLATSFFNERNINITKDLLDLLVEAKQEVPSWLENMAYEHHYKG
As for B1, the binding result is reported as “binds”.
